Test results: article PMC6863848, “Selection of an optimal macrocyclic chelator improves the imaging of prostate cancer using cobalt-labeled GRPR antagonist RM26” (Scientific Reports, 2019)

How the values were obtained:
[1] = Ex vivo biodistribution and tumor targeting; conditions: female, BALB/c nu/nu, mouse, iv, 45 pmol per mouse, total radioactivity
Description: (§1) Euthanasia was performed by intraperitoneal injection of Ketalar-Rompun solution (10 mg/mL Ketalar and 1 mg/mL Rompun; 20 µL/g body weight) and all efforts were made to minimize suffering. Groups of 4 mice per data point were used.
(§2) Blood samples were collected by heart puncture. Lung, liver, spleen, pancreas, stomach, small intestines, kidneys, muscle, bone, and the rest of gastrointestinal tract with its content were collected, weighed and measured in a gamma-counter. The organ uptake values were expressed as a percentage of injected dose per gram of tissue weight (%ID/g) with the exception of gastrointestinal tract and the remaining carcass, which were calculated as %ID per whole sample.
(§3) The biodistribution and targeting properties of ^57Co-X-PEG2-RM26 were evaluated in female BALB/c nu/nu mice (weight: 18 ± 2 g). GRPR-expressing xenografts were established by subcutaneous injection of 8 × 10^6 PC-3 cells/mouse, 2 weeks prior to the experiment. At the time of experiment, the mice were intravenously injected with ^57Co-X-PEG2-RM26 (25 kBq, 45 pmol in 100 µL PBS per mouse) and were euthanized 3 and 24 h pi.

[2] = tested on: PC-3 xenografted BALB/c nu/nu mice; assay: Ex vivo biodistribution and tumor targeting; conditions: 24 h pi
Description: as §1, §2, §3

NMRI mice = conditions: 25 kBq, 3 and 24 h pi
Description: as §2

in vivo = conditions: female, BALB/c nu/nu, mouse, iv, 45 pmol per mouse, total radioactivity
Description: as §1, §2, §3

[3] = blood, Blood uptake, PC-3-xenografted BALB/c nu/nu mice, iv 25 kBq/45 pmol, 3 h pi, 4 mice per data point
[4] = blood, Blood uptake, PC-3-xenografted BALB/c nu/nu mice, iv 25 kBq/45 pmol, 24 h pi, 4 mice per data point
[5] = bone, Bone uptake, PC-3-xenografted BALB/c nu/nu mice, iv 25 kBq/45 pmol, 3 h pi, 4 mice per data point
[6] = bone, Bone uptake, PC-3-xenografted BALB/c nu/nu mice, iv 25 kBq/45 pmol, 24 h pi, 4 mice per data point
[7] = gastrointestinal tract with content (whole sample)
[8] = kidneys, Kidneys uptake, PC-3-xenografted BALB/c nu/nu mice, iv 25 kBq/45 pmol, 3 h pi, 4 mice per data point
[9] = kidneys, Kidneys uptake, PC-3-xenografted BALB/c nu/nu mice, iv 25 kBq/45 pmol, 24 h pi, 4 mice per data point
[10] = liver, Liver uptake, PC-3-xenografted BALB/c nu/nu mice, iv 25 kBq/45 pmol, 3 h pi, 4 mice per data point
[11] = liver, Liver uptake, PC-3-xenografted BALB/c nu/nu mice, iv 25 kBq/45 pmol, 24 h pi, 4 mice per data point
[12] = lung, Lung uptake, PC-3-xenografted BALB/c nu/nu mice, iv 25 kBq/45 pmol, 3 h pi, 4 mice per data point
[13] = lung, Lung uptake, PC-3-xenografted BALB/c nu/nu mice, iv 25 kBq/45 pmol, 24 h pi, 4 mice per data point
[14] = muscle, Muscle uptake, PC-3-xenografted BALB/c nu/nu mice, iv 25 kBq/45 pmol, 3 h pi, 4 mice per data point
[15] = muscle, Muscle uptake, PC-3-xenografted BALB/c nu/nu mice, iv 25 kBq/45 pmol, 24 h pi, 4 mice per data point
[16] = pancreas, Pancreas uptake, PC-3-xenografted BALB/c nu/nu mice, iv 25 kBq/45 pmol, 3 h pi, 4 mice per data point
[17] = pancreas, Pancreas uptake, PC-3-xenografted BALB/c nu/nu mice, iv 25 kBq/45 pmol, 24 h pi, 4 mice per data point
[18] = remaining carcass (whole sample)
[19] = small intestine, Sm. Int. uptake, PC-3-xenografted BALB/c nu/nu mice, iv 25 kBq/45 pmol, 3 h pi, 4 mice per data point
[20] = small intestine, Sm. Int. uptake, PC-3-xenografted BALB/c nu/nu mice, iv 25 kBq/45 pmol, 24 h pi, 4 mice per data point
[21] = spleen, Spleen uptake, PC-3-xenografted BALB/c nu/nu mice, iv 25 kBq/45 pmol, 3 h pi, 4 mice per data point
[22] = spleen, Spleen uptake, PC-3-xenografted BALB/c nu/nu mice, iv 25 kBq/45 pmol, 24 h pi, 4 mice per data point
[23] = stomach, Stomach uptake, PC-3-xenografted BALB/c nu/nu mice, iv 25 kBq/45 pmol, 3 h pi, 4 mice per data point
[24] = stomach, Stomach uptake, PC-3-xenografted BALB/c nu/nu mice, iv 25 kBq/45 pmol, 24 h pi, 4 mice per data point
[25] = tumor, Tumor uptake, PC-3-xenografted BALB/c nu/nu mice, iv 25 kBq/45 pmol, 3 h pi, 4 mice per data point
[26] = tumor, Tumor uptake, PC-3-xenografted BALB/c nu/nu mice, iv 25 kBq/45 pmol, 24 h pi, 4 mice per data point

Row | SMILES | tissue uptake at 3 h [1, 3] | tissue uptake at 24 h [1, 4] | tissue uptake at 3 h [1, 5] | tissue uptake at 24 h [1, 6] | tissue uptake dose at 3 h [1, 7] | tissue uptake dose at 24 h [1, 7] | tissue uptake at 3 h [1, 8] | tissue uptake at 3 h [1, 10] | tissue uptake at 24 h [1, 11] | tissue uptake at 3 h [1, 12] | tissue uptake at 24 h [1, 13] | tissue uptake at 24 h [1, 15] | tissue uptake at 24 h [1, 17] | tissue uptake dose at 3 h [1, 18] | tissue uptake dose at 24 h [1, 18] | tissue uptake at 3 h [1, 19] | tissue uptake at 24 h [1, 22] | tissue uptake at 3 h [1, 23] | tissue uptake at 3 h [1, 25] | tissue uptake at 24 h [1, 26] | also measured
1 | CC(C)C[C@H](NC(=O)C[C@H](O)[C@H](CC(C)C)NC(=O)[C@H](Cc1c[nH]cn1)NC(=O)CNC(=O)[C@@H](NC(=O)[C@H](C)NC(=O)[C@H](Cc1c[nH]c2ccccc12)NC(=O)[C@H](CCC(N)=O)NC(=O)[C@@H](Cc1ccccc1)NC(=O)COCCOCCNC(=O)CCC(C(=O)O)N1CCN(CC(=O)O)CCN(CC(=O)O)CCN(CC(=O)O)CC1)C(C)C)C(N)=O (stereo partly drawn) [DOTAGA] | 0.02 ± 0.01 %ID/g | 0.005 ± 0.002 %ID/g | 0.02 ± 0.005 %ID/g | 0.02 ± 0.03 %ID/g | 1 ± 0.5 %ID | 0.1 ± 0.1 %ID | 3.5 ± 0.4 %ID/g | 0.08 ± 0.02 %ID/g | 0.04 ± 0.01 %ID/g | 0.07 ± 0.03 %ID/g | 0.02 ± 0.02 %ID/g | 0.007 ± 0.007 %ID/g | 0.028 ± 0.009 %ID/g | 1.9 ± 0.9 %ID | 0.3 ± 0.3 %ID | 0.13 ± 0.05 %ID/g | 0.016 ± 0.009 %ID/g | 0.4 ± 0.3 %ID/g | 6.9 ± 2.7 %ID/g | 2.3 ± 0.7 %ID/g | tissue uptake at 24 h [1, 9]: 1.8 ± 0.5 %ID/g; tissue uptake at 3 h [1, 14]: 0.04 ± 0.01 %ID/g; tissue uptake at 3 h [1, 16]: 0.4 ± 0.1 %ID/g; tissue uptake at 24 h [1, 20]: 0.02 ± 0.01 %ID/g; tissue uptake at 3 h [1, 21]: 0.08 ± 0.05 %ID/g; tissue uptake at 24 h [1, 24]: 0.018 ± 0.004 %ID/g; Kidney uptake, higher compared to NODAGA- and DOTA-containing analogues [2]: twofold higher
2 | CC(C)C[C@H](NC(=O)C[C@H](O)[C@H](CC(C)C)NC(=O)[C@H](Cc1c[nH]cn1)NC(=O)CNC(=O)[C@@H](NC(=O)[C@H](C)NC(=O)[C@H](Cc1c[nH]c2ccccc12)NC(=O)[C@H](CCC(N)=O)NC(=O)[C@@H](Cc1ccccc1)NC(=O)COCCOCCNC(=O)CCC(C(=O)O)N1CCN(CC(=O)O)CCN(CC(=O)O)CC1)C(C)C)C(N)=O (stereo partly drawn) [NODAGA] | 0.032 ± 0.009 %ID/g | 0.006 ± 0.003 %ID/g | 0.1 ± 0.2 %ID/g | 0.007 ± 0.002 %ID/g | 5 ± 1 %ID | 0.3 ± 0.2 %ID | 2.5 ± 0.8 %ID/g | 0.08 ± 0.02 %ID/g | 0.02 ± 0.01 %ID/g | 0.05 ± 0.01 %ID/g | 0.02 ± 0.01 %ID/g | 0.006 ± 0.005 %ID/g | 0.02 ± 0.03 %ID/g | 1.3 ± 0.3 %ID | 0.1 ± 0.1 %ID | 0.3 ± 0.3 %ID/g | 0.009 ± 0.002 %ID/g | 0.39 ± 0.09 %ID/g | 6.3 ± 1.2 %ID/g | 2.3 ± 0.9 %ID/g | tissue uptake at 24 h [1, 9]: 0.7 ± 0.4 %ID/g; tissue uptake at 3 h [1, 14]: 0.02 ± 0.01 %ID/g; tissue uptake at 3 h [1, 16]: 0.3 ± 0.2 %ID/g; tissue uptake at 24 h [1, 20]: 0.015 ± 0.007 %ID/g; tissue uptake at 3 h [1, 21]: 0.05 ± 0.02 %ID/g; tissue uptake at 24 h [1, 24]: 0.04 ± 0.01 %ID/g
3 | [57Co+2].[Cl-].[Cl-] [free cobalt, cobalt-57 chloride] | – | – | – | – | – | – | – | – | – | – | – | – | – | – | – | – | – | – | – | – | Biodistribution pattern (NMRI mice): Uniform activity distribution
4 | CC(C)C[C@H](NC(=O)C[C@H](O)[C@H](CC(C)C)NC(=O)[C@H](Cc1c[nH]cn1)NC(=O)CNC(=O)[C@@H](NC(=O)[C@H](C)NC(=O)[C@H](Cc1c[nH]c2ccccc12)NC(=O)[C@H](CCC(N)=O)NC(=O)[C@@H](Cc1ccccc1)NC(=O)COCCOCCNC(=O)CN1CCN(CC(=O)O)CCN(CC(=O)O)CCN(CC(=O)O)CC1)C(C)C)C(N)=O [DOTA] | 0.028 ± 0.006 %ID/g | 0.007 ± 0.002 %ID/g | 0.08 ± 0.03 %ID/g | 0.09 ± 0.06 %ID/g | 4.8 ± 0.1 %ID | 0.21 ± 0.09 %ID | 1.9 ± 0.3 %ID/g | 0.078 ± 0.009 %ID/g | 0.034 ± 0.003 %ID/g | 0.06 ± 0.01 %ID/g | 0.023 ± 0.004 %ID/g | 0.02 ± 0.01 %ID/g | 0.05 ± 0.01 %ID/g | 0.9 ± 0.4 %ID | 0.2 ± 0.1 %ID | 0.9 ± 0.1 %ID/g | 0.035 ± 0.006 %ID/g | 2.1 ± 0.6 %ID/g | 8.1 ± 0.6 %ID/g | 4.4 ± 1.3 %ID/g | tissue uptake dose at 3 h ([1]; gastrointestinal tract with contents): 5 %ID; tissue uptake at 24 h ([1]; kidneys): 0.8 ± 0.2 %ID/g; tissue uptake at 3 h ([1]; muscle): 0.4 ± 0.7 %ID/g; tissue uptake at 3 h [1, 16]: 2.5 ± 0.8 %ID/g; tissue uptake at 24 h [1, 20]: 0.06 ± 0.02 %ID/g; tissue uptake at 3 h [1, 21]: 0.09 ± 0.02 %ID/g; tissue uptake at 24 h [1, 24]: 0.06 ± 0.02 %ID/g; Tumor radioactivity, higher than other conjugates [2]: twofold higher
5 | CC(C)C[C@H](NC(=O)C[C@H](O)[C@H](CC(C)C)NC(=O)[C@H](Cc1c[nH]cn1)NC(=O)CNC(=O)[C@@H](NC(=O)[C@H](C)NC(=O)[C@H](Cc1c[nH]c2ccccc12)NC(=O)[C@H](CCC(N)=O)NC(=O)[C@@H](Cc1ccccc1)NC(=O)COCCOCCNC(=O)CN1CCN(CC(=O)O)CCN(CC(=O)O)CC1)C(C)C)C(N)=O [NOTA] | 0.019 ± 0.004 %ID/g | 0.006 ± 0.001 %ID/g | 0.04 ± 0.04 %ID/g | – | 0.6 ± 0.1 %ID | 0.09 ± 0.03 %ID | 0.93 ± 0.05 %ID/g | – | 0.025 ± 0.005 %ID/g | 0.065 ± 0.005 %ID/g | 0.09 ± 0.15 %ID/g | 0.011 ± 0.005 %ID/g | 0.023 ± 0.002 %ID/g | 0.6 ± 0.4 %ID | 0.18 ± 0.06 %ID | 0.098 ± 0.028 %ID/g | 0.029 ± 0.004 %ID/g | 0.3 ± 0.1 %ID/g | 7.3 ± 1.3 %ID/g | 2.1 ± 0.2 %ID/g | tissue uptake at 24 h (in vivo; Bone uptake): 0.08 ± 0.05 %ID/g; tissue uptake at 24 h (in vivo; Kidneys uptake): 0.09 ± 0.03 %ID/g; tissue uptake at 3 h (in vivo; Liver uptake): 0.07 ± 0.004 %ID/g; tissue uptake at 3 h (in vivo; Pancreas uptake): 0.21 ± 0.052 %ID/g; tissue uptake at 24 h (in vivo; Sm. Int. uptake): 0.06 ± 0.03 %ID/g; tissue uptake at 3 h (in vivo; Spleen uptake): 0.05 ± 0.008 %ID/g; tissue uptake at 24 h (in vivo; Stomach uptake): 0.05 ± 0.03 %ID/g; tissue uptake at 3 h [1, 14]: 0.08 ± 0.1 %ID/g
